Values quoted from earlier work, collected in US7101894B2 (priority 2001, dated 2006).

Molecular target: CMV US28 (Human cytomegalovirus, UniProt P69332)
Details: binding of Fractalkine to US28

Sequence of CMV US28 (P69332 whole entry): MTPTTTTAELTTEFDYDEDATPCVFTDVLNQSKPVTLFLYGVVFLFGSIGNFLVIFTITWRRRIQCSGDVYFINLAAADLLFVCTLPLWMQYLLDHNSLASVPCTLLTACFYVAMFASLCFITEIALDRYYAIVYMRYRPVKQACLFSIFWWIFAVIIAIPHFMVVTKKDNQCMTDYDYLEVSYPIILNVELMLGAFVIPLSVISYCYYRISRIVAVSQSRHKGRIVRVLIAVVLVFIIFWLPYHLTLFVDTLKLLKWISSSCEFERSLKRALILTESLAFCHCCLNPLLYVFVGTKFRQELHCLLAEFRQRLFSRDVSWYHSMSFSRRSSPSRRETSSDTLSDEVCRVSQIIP

B1: Fractalkine: the CX3C chemokine, binds US28; used 125I-labeled as radioligand (protein, UniProt P78423 25-397, looked up)
Fractalkine: QHHGVTKCNITCSKMTSKIPVALLIHYQQNQASCGKRAIILETRQHRLFCADPKEQWVKDAMQHLDRQAAALTRNGGTFEKQIGEVKPRTTPAAGGMDESVVLEPEATGESSSLEPTPSSQEAQRALGTSPELPTGVTGSSGTRLPPTPKAQDGGPVGTELFRVPPVSTAATWQSSAPHQPGPSLWAEAKTSEAPSTQDPSTQASTASSPAPEENAPSEGQRVWGQGQSPRPENSLEREEMGPVPAHTDAFQDWGPGSMAHVSVVPVSSEGTPSREPVASGSWTPKAEEPIHATMDPQRLGVLITPVPDAQAATRRQAVGLLAFLGLLFCLGVAMFTYQSLQGCPRKMAGEMAEGLRYIPRSCGSNSYVLVPV
modifications: 125I label
notes: used 125I-labeled as radioligand
For B1, the Ki is listed as roughly 0.05 nM.
